According to patent publication US11098109B2, “Single-chain variable fragment anti-CD133 antibodies and uses thereof” (REGENTS OF THE UNIVERSITY OF MINNESOTA, priority 2010, dated 2021):

Molecular target: T1, human prominin-1 (Homo sapiens, UniProt O43490, DEL381-611)
T1 construct: His-tag (6xHis) (N); made in house
T1 sequence (O43490 with tags, fused parts or gaps DEL381-611): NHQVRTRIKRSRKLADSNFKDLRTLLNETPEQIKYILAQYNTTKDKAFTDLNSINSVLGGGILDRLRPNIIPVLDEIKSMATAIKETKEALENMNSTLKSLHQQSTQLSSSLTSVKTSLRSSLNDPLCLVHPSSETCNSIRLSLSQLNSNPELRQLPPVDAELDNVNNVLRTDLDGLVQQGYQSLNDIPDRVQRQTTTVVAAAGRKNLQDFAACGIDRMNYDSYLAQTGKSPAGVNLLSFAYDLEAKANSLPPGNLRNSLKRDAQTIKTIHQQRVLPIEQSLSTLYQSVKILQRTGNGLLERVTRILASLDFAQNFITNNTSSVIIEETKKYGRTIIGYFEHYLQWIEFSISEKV
Test: ELISA of hybridoma supernatant on recombinant C-prominin-1
Type: binding
Details: supernatant at 1:1, 1:10, 1:100, 1:500 dilution
Method: The hybridoma cells were cultured in DMEM with 10% FBS. When the cells were confluent, they were grown for additional 2-3 days. The supernatant was harvested for ELISA. The recombinant C-prominin-1 protein was coated at a 1:1000 dilution in 96-well plate and incubated at 4° C. ovemight. The coating buffer was discarded, the protein was washed 1 time, 300 μl/well of 5% milk buffer was added, and incubated at 4° C. overnight.
The hybridoma supernatant was diluted with 5% milk buffer at 1:1, 1:10, 1:100, 1:500 and 50 μL/well was added and incubated at 37° C. for one hour. The wells were washed four times, and 50 μL/well goat anti-mouse secondary antibody-HOURP conjugate was added at a dilution of 1:2000 and incubated at 37° C. for one hour. Washed four times, and added 50 μL/well substrate.

B1: Hybridoma Clone 7: monoclonal antibody produced by Hybridoma Clone 7 that specifically binds to human CD133 (antibody, V domains shown)
VL: DIVLSQSPAIMSASPGEKVTISCSASSSVSYMYWYQQKPGSSPKPWIYRTSNLASGVPARFSGSGSGTSYSLTISSMEAEDAATYYCQQYHSYPPTFGAGTKLELK
VH: LEVKLVESGPELKKPGETVKISCKASGYTFTDYSMHWVNQAPGKGLKWMGWINTETGEPSYADDFKGRFAFSLETSASTAYLQINNLKNEDTATYFCATDYGDYFDYWGQGTTLTVSS
B1 was tested, and the “reaction of supernatant with human prominin-1 in ELISA” value was “binds its antigen with high specificity and affinity”.
